The values below come from patent US20240199762A1 (PHILOGEN S P A, published 2024).

For assay [1], the target named is T1, human FAP-ECD (extracellular domain) recombinant fragment containing a C-terminal His6 tag (human, UniProt Q12884 26-760, randomly biotinylated with NHS ester-activated biotin (as used on the SA chip and Streptawell plates)).
T1 construct: also called biotinylated human FAP-ECD; biotinylated human FAP
T1 sequence: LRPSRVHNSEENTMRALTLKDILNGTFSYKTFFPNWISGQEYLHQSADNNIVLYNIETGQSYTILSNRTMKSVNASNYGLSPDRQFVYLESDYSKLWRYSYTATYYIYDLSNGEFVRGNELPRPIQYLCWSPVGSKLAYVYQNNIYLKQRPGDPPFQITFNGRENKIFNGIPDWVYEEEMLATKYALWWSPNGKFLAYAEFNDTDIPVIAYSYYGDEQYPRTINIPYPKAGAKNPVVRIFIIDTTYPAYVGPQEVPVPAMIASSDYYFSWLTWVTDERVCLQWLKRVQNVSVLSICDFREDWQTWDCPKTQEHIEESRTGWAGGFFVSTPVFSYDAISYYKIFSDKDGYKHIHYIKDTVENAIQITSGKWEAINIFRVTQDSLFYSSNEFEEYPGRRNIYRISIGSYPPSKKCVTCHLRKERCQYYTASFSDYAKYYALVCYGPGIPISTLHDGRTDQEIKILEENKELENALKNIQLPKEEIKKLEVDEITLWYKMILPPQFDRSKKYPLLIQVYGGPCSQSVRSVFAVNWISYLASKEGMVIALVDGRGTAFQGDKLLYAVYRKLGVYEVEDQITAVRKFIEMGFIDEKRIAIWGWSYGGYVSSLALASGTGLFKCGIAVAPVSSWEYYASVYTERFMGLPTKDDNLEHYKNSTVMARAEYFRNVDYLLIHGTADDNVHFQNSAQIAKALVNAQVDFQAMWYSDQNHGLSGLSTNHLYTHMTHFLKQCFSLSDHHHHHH
Put plainly: SPR, BIAcore X100, biotinylated human FAP-ECD on SA chip (1500 RU), monomeric scFv injected. The procedure:
Affinity measurements of the C5 and 7NP2 scFv antibodies were performed by Surface Plasmon Resonance using BIAcore X100 instrument with a biotinylated human FAP-ECD coated SA chip. A final coating of 1500 RU was achieved.
Samples were injected at a concentration of […], 450 nM and 225 nM for the C5 scFv and of 1350 nM, 675 nM, 338 nM and 170 nM for the 7NP2 scFv. No regeneration of the SA chip was performed between each run, scFvs were left to detach from the antigen. KD measurements were assessed using the BIAevaluation 3.2 software.

The target of assay [2] is T2, human FAP expressed on transduced cells (SKRC52-hFAP, HT-1080-hFAP) (human, UniProt Q12884 1-760).
T2 construct: whole, on cells; Also the target in SKRC52-hFAP tumor cryosections and in tumors of tumor-bearing mice; also called cell-expressed human FAP
T2 sequence (looked up): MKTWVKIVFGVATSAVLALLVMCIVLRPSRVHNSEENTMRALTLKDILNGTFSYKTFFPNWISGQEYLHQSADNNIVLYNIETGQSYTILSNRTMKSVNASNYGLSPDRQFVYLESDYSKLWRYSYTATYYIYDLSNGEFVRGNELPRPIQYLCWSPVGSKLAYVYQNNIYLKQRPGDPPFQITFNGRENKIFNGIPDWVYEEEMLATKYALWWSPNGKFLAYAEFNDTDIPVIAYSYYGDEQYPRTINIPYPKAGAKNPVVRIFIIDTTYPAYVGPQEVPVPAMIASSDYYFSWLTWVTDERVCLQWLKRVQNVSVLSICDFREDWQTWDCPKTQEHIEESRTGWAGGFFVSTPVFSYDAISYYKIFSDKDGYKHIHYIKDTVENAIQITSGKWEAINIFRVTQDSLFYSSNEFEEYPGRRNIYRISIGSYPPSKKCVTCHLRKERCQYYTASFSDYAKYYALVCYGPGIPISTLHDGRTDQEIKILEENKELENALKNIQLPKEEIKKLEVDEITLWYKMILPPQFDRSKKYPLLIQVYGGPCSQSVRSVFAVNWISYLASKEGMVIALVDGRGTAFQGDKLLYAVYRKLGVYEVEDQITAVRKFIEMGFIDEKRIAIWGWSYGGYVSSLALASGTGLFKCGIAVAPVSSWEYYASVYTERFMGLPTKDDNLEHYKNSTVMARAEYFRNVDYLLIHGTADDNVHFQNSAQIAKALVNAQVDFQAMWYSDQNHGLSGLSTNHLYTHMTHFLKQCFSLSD
Description: flow cytometry on HT-1080-hFAP and SKRC52-hFAP cells against wild-type cells. The method, then:
The cell lines used were the human renal cell carcinoma cell line SKRC52 and the human fibrosarcoma cell line HT-1080.
Specifically, SKRC52-hFAP, SKRC52 wild-type (wt), HT-1080-hFAP and HT-1080 wt cells were detached from cell culture plates using Accutase, counted and suspended to a final concentration of 1×10⁶ cells/mL in FACS buffer (0.5% BSA, 2 mM EDTA in PBS). Cells were incubated with the 7NP2 or KSF antibodies in SIP format and binding detected using an […] (25 μg/ml), followed by staining with the anti-rat AlexaFluor488 antibody. Cells were analyzed on a CytoFLEX cytometer (Beckman Coulter). The raw data were processed using the FlowJo 10.4 software.

B1: affinity-matured anti-FAP antibody 7NP2 in scFv format (scFv)
scFv: EVQLLESGGGLVQPGGSLRLSCAASGFTFSSYAMSWVRQAPGKGLEWVSAIGSVGGPTYYADSVKGRFTISRDNSKNTLYLQMNSLRAEDTAVYYCAKRLAWFDYWGQGTLVTVSSGGGGSGGGGSGGGGEIVLTQSPGTLSLSPGERATLSCRASQSVSSSYLAWYQQKPGQAPRLLIYGASSRATGIPDRFSGSGSGTDFTLTISRLEPEDFAVYYCQQSGKGPLTFGQGTKVEIK
notes: The monomeric scFv was used in BIAcore; also called 7NP2 scFv; scFv(7NP2)
B1: the Kd in assay [1] is 10 nM.

B2: anti-FAP antibody 7NP2 in SIP (small immunoprotein) format (other)
chain: EVQLLESGGGLVQPGGSLRLSCAASGFTFSSYAMSWVRQAPGKGLEWVSAIGSVGGPTYYADSVKGRFTISRDNSKNTLYLQMNSLRAEDTAVYYCAKRLAWFDYWGQGTLVTVSSGGGGSGGGGSGGGGEIVLTQSPGTLSLSPGERATLSCRASQSVSSSYLAWYQQKPGQAPRLLIYGASSRATGIPDRFSGSGSGTDFTLTISRLEPEDFAVYYCQQSGKGPLTFGQGTKVEIKSGGSGGPRAAPEVYAFATPEWPGSRDKRTLACLIQNFMPEDISVQWLHNEVQLPDARHSTTQPRKTKGSGFFVFSRLEVTRAEWEQKDEFICRAVHEAASPSQTVQRAVSVNPESSRRGGC
notes: Homodimeric mini-immunoglobulin: 77 kDa under non-reducing and 38 kDa under reducing conditions; also called 7NP2 SIP; 7NP2(SIP)
For B2, the binding result in assay [2] is on record as “binds”.
